Results on 29 sequences are retold here after the supplement of paper PMC9170038.

This data set deals with MS2 coat protein. Briefly: apparent KD of MS2 coat protein; designed switch direction (-1 OFF switch, 1 ON switch): 1; higher = weaker reporter binding. Summed up: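 Normalised cluster fluorescence was curve-fitted, and each design's median over clusters is its apparent KD. Before this, SNAP-549-labelled MS2 coat protein was titrated from 0.7 or 1.5 nM, doubling to 3 µM, over RNA switches transcribed on Illumina chips by stalled E. coli RNA polymerase. Titrations had no input, 200 uM small-molecule ligand, or an oligonucleotide input, and steps lasted 0.8–1.5 h (lowest) to 10–20 min (highest).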

[1] abbreviates: input ligand: microRNA oligo, concentration not stated.
Where [2] appears, read: Eterna round: R95, input ligand: FMN 200 uM.
The mark [3] stands for this setting: Eterna round: R95, input ligand: microRNA oligo, concentration not stated.
The mark [4] stands for this setting: Eterna round: R95, input ligand: none.

For the sequence “AAGGUCAAGAUAGGAUAUGUUUCAUGAUAGAUAACAGAAGGAUCUAGAACAUGAGGAUCACCCAUGUGGCACAUAGAGUGGUGA [Default title] (Eterna round: R96, puzzle: Same State NG 1)”, the “apparent KD of MS2 coat protein” value under setting [1] stood at 284 nM.
Regarding “AAGUAGGAGUUACAGGAUAUAUGGAGAAGGACAUGAGGAUCACCCAUGUGAGAGAUGAGAGGAAGAUAGAAGGGUAAGGGAGUAA [JR_SS2_Sub026] (puzzle: Same State 2)”, the “apparent KD of MS2 coat protein” value amounted to 44 nM under setting [2], 41.4 nM under setting [3] and 77.2 nM under setting [4].
In the case of “AAGUAGUGGUCAGGAUAUCAAAUCAUUGCAUCACGAUACAUGAGGAUCACCCAUGUCCCAAAAUAUGAGAAGGGACUCACACGG [Eternabot solution 45] (Eterna round: R96, puzzle: Same State NG 2)”, the “apparent KD of MS2 coat protein” value (input ligand: FMN 200 uM) came to 279 nM, the “apparent KD of MS2 coat protein” value under setting [1] was found to be 90.1 nM and the “apparent KD of MS2 coat protein” value (input ligand: none) was 186 nM.
On to “AAGUUACUAUCUCAGGAUAUCAUGUCAAAGACAUGAGGAUCACCCAUGUACCAGGAAACUGGUUAUGAGAAGGGAGAUAGUAACA [Mat - Same State 2 - Mod - D50] (puzzle: Same State 2)”, for which the “apparent KD of MS2 coat protein” value by setting is: under setting [2], 143 nM; under setting [3], 134 nM; under setting [4], 1400 nM.
“AAUAAACAUGAGGAUCACCCAUGUGCAACGCGUCAAGGAUAUGCAUCAAACACGCCUUGAGCAGAAGGUGACCGGA [Ladiis] (puzzle: Same State 1)”: the “apparent KD of MS2 coat protein” value was found to be 245 nM under setting [2], 41.7 nM under setting [3] and 16.7 nM under setting [4].
The matching figures for “AAUCAACAUGAGGAUCACCCAUGUCACACAAAGUGAGGAUAUUGGAAAUAAAUAAUAAAACGAGAAGGCGCUGCGG [OBB] (puzzle: Same State 1)”: 26.6 nM, 44.5 nM and 60 nM.
For the sequence “AAUCCUGUCACAGGAUAUCCGAGGGCAACCCUCGGAGAAGGGUGAUAGUCUAACAAACACACACAUGAGGAUCACCCAUGUUAA [Sogece] (Eterna round: R96, puzzle: Same State NG 1)”, the “apparent KD of MS2 coat protein” value (input ligand: FMN 200 uM) was 76.9 nM, the “apparent KD of MS2 coat protein” value under setting [1] came out at 113 nM and the “apparent KD of MS2 coat protein” value (input ligand: none) was 133 nM.
Take “AAUCCUGUCACAGGAUAUCCGAGGUCAACCCUCGGAGAAGGGUGAUAGUCUAACAAACACACACAUGAGGAUCACCCAUGUUAA [Bigeceaor] (Eterna round: R96, puzzle: Same State NG 1)”: the “apparent KD of MS2 coat protein” value runs as follows: (input ligand: FMN 200 uM) 43.1 nM; under setting [1], 61.6 nM; (input ligand: none) 79.2 nM.
The matching figures for “AAUCGUUUGAUAGGAUAUCGCUAUACAUGAGGAUCACCCAUGUUUACCACGCUGGUUUUUCAUACCGAGAAGGAUUCUGAUGAA [salish99_SSNG02_r04_003] (Eterna round: R96, puzzle: Same State NG 2)”: 31.5 nM, 27.1 nM and 33.4 nM.
“AAUCGUUUGAUAGGAUAUCGCUAUACAUGAGGAUCACCCAUGUUUACCACGCUGGUUUUUCAUACCGAGAAGGAUUCUGAUGAG [salish99_SSNG02_r04_001] (Eterna round: R96, puzzle: Same State NG 2)”: the “apparent KD of MS2 coat protein” value by setting is: (input ligand: FMN 200 uM) 72.1 nM; under setting [1], 45.7 nM; (input ligand: none) 53.4 nM.
Take “AAUCGUUUGAUAGGAUAUCGCUAUACAUGAGGAUCACCCAUGUUUACCACGCUGGUUUUUCAUACCGAGAAGGAUUCUGAUGAU [JL JR sub007 mod 10] (Eterna round: R96, puzzle: Same State NG 2)”: the “apparent KD of MS2 coat protein” value by setting is: (input ligand: FMN 200 uM) 36 nM; under setting [1], 31.2 nM; (input ligand: none) 35.2 nM.
As to “AAUUAAGAUCAAGGAUAUCACGUCGAAUAGACGUGAGAAGGUGAUCCAUACAUGAGGAUCACCCAUGUAUAACAUGAAUUAAUU [SSNG1/8-B1] (Eterna round: R96, puzzle: Same State NG 1)”, the “apparent KD of MS2 coat protein” value under setting [1] was 607 nM.
Regarding “AAUUAAGAUUAAGGAUAUCACGUCGAAUAGACGUGAGAAGGUGAUCAUAACAUGAGGAUCACCCAUGUAUUACAUGAAUUAAUU [SSNG1/3-B1] (Eterna round: R96, puzzle: Same State NG 1)”, the “apparent KD of MS2 coat protein” value is, setting by setting: (input ligand: FMN 200 uM) 873 nM; under setting [1], 218 nM; (input ligand: none) 498 nM.
The matching figures for “AAUUAAGAUUAAGGAUAUCACGUCGAUUAGACGUGAGAAGGUGAUCAUAACAUGAGGAUCACCCAUGUAUUACAUGAAUUAAUU [SSNG1/3-B2] (Eterna round: R96, puzzle: Same State NG 1)”: 132 nM, 113 nM and 118 nM.
The matching figures for “AAUUAAGAUUGAGGAUAUCACGUCGUUUAGACGUGAGAAGGCGAUCAUAACAUGAGGAUCACCCAUGUAUUACAUGAAUUAAUU [SSNG1/5-B3] (Eterna round: R96, puzzle: Same State NG 1)”: 17.8 nM, 20 nM and 34 nM.
Take “AAUUAAUUAAUACAUGAGGAUCACCCAUGUAAUUAUUAGAUCUAGGAUAUCAGCUCGAUUAGAGCUGAGAAGGAGAUCACAUGU [SSNG3/18-B2] (Eterna round: R96, puzzle: Same State NG 3)”: the “apparent KD of MS2 coat protein” value under setting [1] was 13.6 nM.
In the case of “AAUUAAUUAAUUAAGUACAUGAGGAUCACCCAUGUAAGUGAUCAGGAUAUCAGCUCGAUUAGAGCUGAGAAGGGAUCCAUGUAC [SSNG3/15-A2] (Eterna round: R96, puzzle: Same State NG 3)”, the “apparent KD of MS2 coat protein” value under setting [1] is 400 nM.
For the sequence “AAUUAAUUAAUUAAUAUACAUGAGGAUCACCCAUGUAAGAUCAAGGAUAUCAGCUCGUGUAGAGCUGAGAAGGUGAUCACAUGU [SSNG3/16-A4] (Eterna round: R96, puzzle: Same State NG 3)”, the “apparent KD of MS2 coat protein” value worked out at 345 nM (input ligand: FMN 200 uM), 92.5 nM under setting [1] and 166 nM (input ligand: none).
For the sequence “AAUUAAUUAAUUAAUAUACAUGAGGAUCACCCAUGUAAGAUCAAGGAUAUCAGCUCGUUUAGAGCUGAGAAGGUGAUCACAUGU [SSNG3/16-A3] (Eterna round: R96, puzzle: Same State NG 3)”, the “apparent KD of MS2 coat protein” value reads like this: (input ligand: FMN 200 uM) 447 nM; under setting [1], 156 nM; (input ligand: none) 302 nM.
On to “AAUUAUUAACAUGAGGAUCACCCAUGUAUCAUGAUUACUAUUAUUAGUAUCAUGAAUAGGGUUUUUGCUCGUCUUAU [ben_bell_2] (puzzle: Sensor for hsa-mir-208a version 2)”, for which the “apparent KD of MS2 coat protein” value is, setting by setting: under setting [2], 85.9 nM; under setting [3], 26.2 nM; under setting [4], 53.5 nM.
The matching figures for “AAUUAUUAACAUGAGGAUCACCCAUGUAUUACUUCAUGUUUUUGCUCGUCUAUUAUUAUUAUUAUUAUUAUUAUUAA [Most simple design] (puzzle: Sensor for hsa-mir-208a version 2)”: 282 nM, 40.1 nM and 340 nM.
Regarding “AAUUAUUAACAUGAGGAUCACCCAUGUAUUUAUGUUAGUAUCUAACAUAGUCUUAUUAAGCUUUGUGAUUGUCUUAU [Cole's First Solution] (puzzle: Sensor for hsa-mir-208a version 2)”, the “apparent KD of MS2 coat protein” value was 29.8 nM under setting [2], 32.6 nM under setting [3] and 38.8 nM under setting [4].
For the sequence “AAUUAUUAACAUGAGGAUCACCCAUGUGUUUUUGGGCUCGUUUUAUUUAUUAUUAUUAUUAUUAUUAUUAUUAUUAA [SB switch1] (puzzle: Sensor for hsa-mir-208a version 2)”, the “apparent KD of MS2 coat protein” value under setting [2] was found to be 85.3 nM, the “apparent KD of MS2 coat protein” value under setting [3] was determined as 69.1 nM and the “apparent KD of MS2 coat protein” value under setting [4] worked out at 154 nM.
The matching figures for “AAUUAUUAACAUGAGGAUCACCCAUGUGUUUUUUGCUCGUCAUGUAUUAUUAUUAUUAUUAUUAUUAUUAUUAUUAA [my second RNA] (puzzle: Sensor for hsa-mir-208a version 2)”: 41.9 nM, 18.8 nM and 52.4 nM.
For the sequence “AAUUGUUCCUGAGGAUAUCAGUAGUUUGCUCUUUGAGAAGGCAGUACAUGAGGAUCACCCAUGUUGUGGUUUGAUAGAAUGAUA [JR_SSNG1_Sub006] (Eterna round: R96, puzzle: Same State NG 1)”, the “apparent KD of MS2 coat protein” value (input ligand: FMN 200 uM) was 131 nM, the “apparent KD of MS2 coat protein” value under setting [1] is 103 nM and the “apparent KD of MS2 coat protein” value (input ligand: none) is 137 nM.
The matching figures for “AAUUGUUUCUGAGGAUAUCAGUAGUAUGCCAAUUGAGAAGGCAGUACAUGAGGAUCACCCAUGUUAUGGUUUGAUAGAAUGAUA [JR_SSNG1_Sub001] (Eterna round: R96, puzzle: Same State NG 1)”: 74.8 nM, 51.2 nM and 54.1 nM.
With “AAUUUAAUACAUGAGGAUCACCCAUGUAAAUUAAUUAAGAUCUAGGAUAUCAGCUCGUUUAGAGCUGAGAAGGAGAUCACAUGU [SSNG3/19-B3] (Eterna round: R96, puzzle: Same State NG 3)”, the “apparent KD of MS2 coat protein” value under setting [1] was 12.5 nM.
Regarding “AAUUUAAUACAUGAGGAUCACCCAUGUAAUACUAGUAAGAUCUAGGAUAUCAGCUCGAAUAGAGCUGAGAAGGAGAUCACAUGU [SSNG3/19-C1] (Eterna round: R96, puzzle: Same State NG 3)”, the “apparent KD of MS2 coat protein” value is, setting by setting: (input ligand: FMN 200 uM) 24.2 nM; under setting [1], 63.9 nM; (input ligand: none) 82 nM.
As to “AAUUUAAUACAUGAGGAUCACCCAUGUAAUACUUGUAAGAUCAAGGAUAUCAGCUCGAUUAGAGCUGAGAAGGUGAUCACAUGU [SSNG3/19-D2] (Eterna round: R96, puzzle: Same State NG 3)”, the “apparent KD of MS2 coat protein” value under setting [1] came out at 21.6 nM.
